{
  "source": "patent US20030216563",
  "proteins": {"B1": {"name": "Cds1 (protein)", "chain": "MEEPEEATQATQEAPLHVSQNIAKQVVNNENVFMKLVMTRMLDGKTEVIPLTTDVHNGFWRFGRHKSCEVVLNGPRVSNFHFEIYQGHRNDSDESENVVFLHDHSSNGTFLNFERLAKNSRTILSNGDEIRIGLGVPKDEISFLCQVPVKHSRDSQKNMIKSENSHYEIIRTLGSGTFAVVKLAVEVNSGKWYAIKIINKRKILLTSSEKRATEMFQREIDILKSLHHPGVVQCHEIFENDDELFIVMEYVEGGDLMDFLIANGSIDEQDCKPLLKQLLETLLHLHKQGVTHRDIKPENILITNDFHLKISDFGLAKVIHGTGTFLETFCGTMGYLAPEVLKSKNVNLDGGYDDKVDIWSLGCVLYVMLTASIPFASSSQAKCIELISKGAYPIEPLLENEISEEGIDLINRMLEINPEKRISESEALQHPWFYTVSTHEHRTPPSSSEHEATEQLNSSS"}},
  "data": [
    {"protein": "B1", "values": [
      {"measurement": "phosphorylation by bead-associated kinase with [gamma-32P]ATP", "setting": "GST:Weel^152", "result": "GST:Weel^152 is phosphorylated by this kinase and another that is active prior to HU treatment"},
      {"measurement": "in vitro phosphorylation, two-dimensional tryptic phosphopeptide map", "setting": "GST:Weel^70", "result": "Cds1 purified from fission yeast phosphorylated GST:Weel^70 in vitro, producing a two-dimensional tryptic phosphopeptide map that was identical to a map made from GST:Weel^70 phosphorylated by its associated kinase"}
    ]}
  ]
}
